Reference: patent US20250382344A1, “Soluble GLP1/GIP/NPY2 Receptor Triple Agonists” (Boehringer Ingelheim International GmH, priority 2024, published 2025)
*1 amine or outer side, *2 acyl side, *3 side chain or, on linkers, in order; H or OH if unused. Where no end group is shown, it is not given here. Side-chain parts run from the residue outwards. [ ]: non-standard residue; d: D form. The star is where a group is joined. C20 diacid = O=C(O)CCCCCCCCCCCCCCCCCCC(=O)*; C18 diacid = O=C(O)CCCCCCCCCCCCCCCCC(=O)*; γGlu = O=C(O)[C@H](CCC(=O)[*:2])N[*:1]; εLys = N[C@@H](CCCCN[*:1])C(=O)[*:2]; AEEA = NCCOCCOCC(=O)O; Aib = CC(C)(N)C(=O)O

Key:
human GIP receptor = molecular target: T1, human GIP receptor (human, UniProt P48546 22-466); experiment: cell-based or functional assay
T1 sequence (looked up): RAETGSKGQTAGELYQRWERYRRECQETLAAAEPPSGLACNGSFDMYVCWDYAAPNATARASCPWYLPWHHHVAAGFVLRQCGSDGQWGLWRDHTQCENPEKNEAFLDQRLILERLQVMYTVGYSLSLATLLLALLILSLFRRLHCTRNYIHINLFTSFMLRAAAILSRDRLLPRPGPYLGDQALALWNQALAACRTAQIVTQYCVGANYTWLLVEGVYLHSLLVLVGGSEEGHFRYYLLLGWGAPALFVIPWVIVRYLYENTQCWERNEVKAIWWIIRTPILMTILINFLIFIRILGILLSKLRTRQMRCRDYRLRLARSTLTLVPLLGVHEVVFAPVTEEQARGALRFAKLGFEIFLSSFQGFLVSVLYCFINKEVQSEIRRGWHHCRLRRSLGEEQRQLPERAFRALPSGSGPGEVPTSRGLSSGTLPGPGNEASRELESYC

[1] = molecular target: T2, human neuropeptide Y2 receptor (human, UniProt P49146 1-381); experiment: cell-based or functional assay
T2 sequence (looked up): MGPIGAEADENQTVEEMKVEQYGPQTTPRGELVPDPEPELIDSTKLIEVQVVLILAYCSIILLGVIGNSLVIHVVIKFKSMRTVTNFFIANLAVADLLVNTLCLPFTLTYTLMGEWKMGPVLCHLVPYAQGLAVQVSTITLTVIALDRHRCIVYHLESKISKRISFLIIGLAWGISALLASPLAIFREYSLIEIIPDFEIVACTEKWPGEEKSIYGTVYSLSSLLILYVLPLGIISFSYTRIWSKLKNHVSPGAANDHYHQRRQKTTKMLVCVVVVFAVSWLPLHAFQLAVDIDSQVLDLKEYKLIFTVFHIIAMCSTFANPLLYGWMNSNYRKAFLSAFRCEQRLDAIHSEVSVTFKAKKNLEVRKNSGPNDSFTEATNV

Binder	EC50, CreLuc reporter, 0.5% hP (human GIP receptor) [nM]	EC50, CreLuc reporter, 0.5% hP [1] [nM]	EC50, CreLuc reporter, 100% hP (human GIP receptor) [nM]	EC50, CreLuc reporter, 100% hP [1] [nM]
Y[Aib]EGTFTSDYSI[Aib]LEKQAQ[Aib]AFVRHLINK([εLys-γGlu-γGlu-γGlu-γGlu-γGlu-γGlu-γGlu-C20 diacid])[Aib]TRQRY-NH2 [Compound 35]	0.7	22.9	–	–
Y[Aib]EGTFTSDYSI[Aib]LEKQAE[Aib]AFVRHLINK([εLys-εLys-γGlu-γGlu-γGlu-γGlu-γGlu-γGlu-C20 diacid])[Aib]TRQRY-NH2 [Compound 82]	–	–	11.7	75.1
YXEGTFTSDYSIXLEKQAQXEFVRHLINKLTRQRY (Aib at 2, 13, 20; Lys29 epsilon-amino acylated with C20DA-gGlu-gGlu-gGlu-gGlu-gGlu-gGlu-eLys; C-terminal amide) [Compound 39]	0.9	10.8	22.9	119
YXEGTFTSDYSIXLEKQAQXAFIRHLINKXTRQRY (Aib at 2, 20, 30; aMeL at 13; Lys29 epsilon-amino acylated with C18DA-gGlu-gGlu-gGlu-gGlu-gGlu-gGlu-eLys; C-terminal amide) [Compound 76]	–	7.2	0.5	24.3
YXEGTFTSDYSIXLEKQAQXEFVRHLINKLTRQRY (Aib at 2, 13, 20; Lys29 epsilon-amino acylated with C18DA-gGlu-gGlu-gGlu-gGlu-gGlu-gGlu-eLys; C-terminal amide) [Compound 83]	0.4	16.8	–	31.7
YXEGTFTSDYSIXLEXQAQXAFVRHLINKXTRQRY (Aib at 2, 13, 16, 20, 30; Lys29 epsilon-amino acylated with C18DA-gGlu-gGlu-gGlu-gGlu-gGlu-gGlu-eLys; C-terminal amide) [Compound 5]	–	28.6	25	89.4
YXEGTFTSDYSIXLEKQAQXAFVRQLINKXTRQRY (Aib at 2, 13, 20, 30; Lys29 epsilon-amino acylated with C18DA-gGlu-gGlu-gGlu-gGlu-gGlu; C-terminal amide) [Compound 50]	0.7	335	23.3	522
YXEGTFTSDLSIXLEKQAQXAFVRHLINKXTRQRY (Aib at 2, 13, 20, 30; Lys29 epsilon-amino acylated with C20DA-gGlu-gGlu-gGlu-gGlu-gGlu-AHX-AHX; C-terminal amide) [Compound 1]	0.2	12.6	10.3	127
YXEGTFTSDYSIXLDEQAQXAFVRHLINKXTRQRY (Aib at 2, 13, 20, 30; Lys29 epsilon-amino acylated with C18DA-gGlu-gGlu-gGlu-gGlu-gGlu-gGlu-eLys; C-terminal amide) [Compound 40]	0.3	16.2	–	59.4
YXEGTFTSDYSIXLEEQAQXAFVRHLINKXTRQRY (Aib at 2, 13, 20, 30; Lys29 epsilon-amino acylated with C18DA-gGlu-gGlu-gGlu-gGlu-gGlu; C-terminal amide) [Compound 75]	0.3	191	13.2	904
YXEGTFTSDYSIXLEKAAQXAFVRHLINKXTRQRY (Aib at 2, 13, 20, 30; Lys29 epsilon-amino acylated with C20DA-gGlu-gGlu-gGlu-gGlu-gGlu-gGlu-eLys; C-terminal amide) [Compound 4]	0.3	17.7	11.5	194
YXEGTFTSDYSIXLEKQAQAAFVRHLINKXTRQRY (Aib at 2, 13, 30; Lys29 epsilon-amino acylated with C18DA-gGlu-gGlu-gGlu-gGlu-gGlu-gGlu-eLys; C-terminal amide) [Compound 61]	0.4	24.1	–	42.1
YXEGTFTSDYSIXLEKQAQXAFVRHLINKLTRQRY (Aib at 2, 13, 20; Lys29 epsilon-amino acylated with C18DA-gGlu-gGlu-gGlu-gGlu-gGlu-AHX; C-terminal amide) [Compound 69]	0.2	7	5.5	56
YXEGTFTSDYSIXLDAQAQXAFVRHLINKXTRQRY (Aib at 2, 13, 20, 30; Lys29 epsilon-amino acylated with C18DA-gGlu-gGlu-gGlu-gGlu-gGlu-gGlu-eLys; C-terminal amide) [Compound 55]	0.4	18.3	7	108
YXEGTFTSDYSIXLEKQAYXAFVRHLINKXTRQRY (Aib at 2, 13, 20, 30; Lys29 epsilon-amino acylated with C18DA-gGlu-gGlu-gGlu-gGlu-gGlu-gGlu-eLys; C-terminal amide) [Compound 84]	5	18.5	48.4	55
YXEGTFTSDYSIXLEKQAQXAFVRHLINKITRQRY (Aib at 2, 13, 20; Lys29 epsilon-amino acylated with C18DA-gGlu-gGlu-gGlu-gGlu-gGlu-gGlu-eLys; C-terminal amide) [Compound 66]	0.2	9.8	–	99.3
YXEGTFTSDYSIXLENQAQXAFVRHLINKXTRQRY (Aib at 2, 13, 20, 30; Lys29 epsilon-amino acylated with C18DA-gGlu-gGlu-gGlu-gGlu-gGlu-gGlu-eLys; C-terminal amide) [Compound 6]	0.7	14.7	7.3	51
YXEGTFTSDYSIXLELQAQXAFVRHLINKXTRQRY (Aib at 2, 13, 20, 30; Lys29 epsilon-amino acylated with C18DA-gGlu-gGlu-gGlu-gGlu-gGlu-gGlu-eLys; C-terminal amide) [Compound 65]	0.7	65.8	16.8	406
Y[Aib]EGTFTSDYSI[Aib]LEKQAQ[Aib]EFVRHLINK([γGlu-γGlu-γGlu-γGlu-C18 diacid])[Aib]TRQRY-NH2 [Compound 79]	–	57.9	4.7	99.1
Y[Aib]EGTFTSDLSI[Aib]LEKQAQ[Aib]AFVRHLINK([γGlu-εLys-γGlu-γGlu-γGlu-γGlu-γGlu-C20 diacid])[Aib]TRQRY-NH2 [Compound 60]	0.3	–	8	124
Y[Aib]EGTFTSDYSI[Aib]LEKQAQ[Aib]EFVRHLINK([AEEA-AEEA-γGlu-γGlu-γGlu-γGlu-C18 diacid])[Aib]TRQRY-NH2 [Compound 73]	0.4	–	5.9	136
Y[Aib]EGTFTSDYSI[Aib]LEEEAQ[Aib]EFVRHLINK([γGlu-γGlu-γGlu-γGlu-C18 diacid])[Aib]TRQRY-NH2 [Compound 64]	0.5	162	–	720
